Measurements reported in the supplement of paper PMC7877785.
± gives the uncertainty stated by the source.

Assay: self-splicing fitness, log relative to wild type (ln ratio); higher = more splicing; Tetrahymena group I intron in knt gene, E. coli kanamycin selection, DiMSum; sequences stand for … in CUCUCU…GGAGGGAAAAGUUAUCAGGCAUGCACCUGGUAGCUAGUCUUUAAACCAAUAGAUUGCAUCGGUUUAAAAGGCAAGACCGUCAAAUUGCGGGAAAGGGGUCAACAGCCGUUCAGUACCAAGUCUCAGGGGAAACUUUGAGAUGGCCUUGCAAAGGGUAUGGUAAUAAGCUGACGGACAUGGUCCUAACCACGCAGCCAAGUCCUAAGUCAACAGAUCUUCUGUUGAUAUGGAUGCAGUUCACAGACUAAAUGUCGGUCGGGGAAGAUGUAUUCUUCUCAUAAGAUAUAGUCGGACCUCUCCUUAAUGGGAGCUAGCGGAUGAAGUGAUGCAACACUGGAGCCGCUGGGAACUAAUUUGUAUGCGAAAGUAUAUUGAUUAGUUUUGGAGUACUCGUGGUCG
Method in brief: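 Library with all eight P1ex-region intron nucleotides randomised, intron inside the knt kanamycin-resistance gene on pET-22b(+), in E. coli BL21(DE3). Cells grew overnight at 37°C or 30°C on LB agar with or without 25 μg/mL kanamycin (plus 100 μg/mL carbenicillin, 50 μM IPTG, 0.2% rhamnose), in six replicate transformations. Pooled colonies were amplicon-sequenced on Illumina HiSeq 2500. DiMSum fitness is the error-weighted combination of wild-type-normalised replicate fold changes, kanamycin versus none.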

| Sequence | self-splicing fitness (ln) (30 °C) | self-splicing fitness (ln) (37 °C) |
| --- | --- | --- |
| CACGAGCAAUAUUACGCAAA | -3.96 ± 0.33 | -2.08 ± 0.19 |
| CACGAGCAAUAUUACGCAAC | -1.88 ± 0.44 | -2.56 ± 0.36 |
| CACGAGCAAUAUUACGCUAC |  | -2.5 ± 0.37 |
| CACGAGCAAUAUUACGGACA | -3.03 ± 0.22 | -2.9 ± 0.22 |
| CACGAGCAAUAUUACGGACG | -1.34 ± 0.075 | -0.15 ± 0.1 |
| CACGAGCAAUAUUACGGCAA | -3.69 ± 0.27 | -2.09 ± 0.14 |
| CACGAGCAAUAUUACGGGGG | -3.04 ± 0.19 | -2.52 ± 0.25 |
| CACGAGCAAUAUUACGGGUG | -3.79 ± 0.21 | -2.25 ± 0.18 |
| CACGAGCAAUAUUACGGUGC | -3.91 ± 0.37 | -2.76 ± 0.28 |
| CACGAGCAAUAUUACGUCAG | -3.42 ± 0.13 | -2.32 ± 0.11 |
| CACGAGCAAUAUUACGUCGG | -2.27 ± 0.11 | -2.16 ± 0.17 |
| CACGAGCAAUAUUACGUCUC | -2.49 ± 0.27 | -3.63 ± 0.34 |
| CACGAGCAAUAUUACGUGAG | -4.08 ± 0.19 | -2.38 ± 0.19 |
| CACGAGCAAUAUUACGUGGU | -3.86 ± 0.24 | -2.25 ± 0.18 |
| CACGAGCAAUAUUACGUGUA | -3.1 ± 0.21 | -2.88 ± 0.2 |
| CACUAGCAAUAUUACGAGUC | -2.82 ± 0.21 | -2.01 ± 0.19 |
| CACUAGCAAUAUUACGCACA | -0.953 ± 0.094 | -0.695 ± 0.08 |
| CACUAGCAAUAUUACGCAGA | -2.54 ± 0.19 | -2.16 ± 0.19 |
| CACUAGCAAUAUUACGCAGU | -4.15 ± 0.42 | -2.78 ± 0.33 |
| CACUAGCAAUAUUACGCCGG | -0.975 ± 0.073 | -0.471 ± 0.1 |
| CACUAGCAAUAUUACGCGCA | -2.52 ± 0.16 | -1.85 ± 0.2 |
| CACUAGCAAUAUUACGCUCA | -2.66 ± 0.21 | -2.08 ± 0.17 |
| CACUAGCAAUAUUACGCUCU | -2.46 ± 0.18 | -0.207 ± 0.13 |
| CACUAGCAAUAUUACGGCAA | -4.1 ± 0.42 | -2.08 ± 0.18 |
| CACUAGCAAUAUUACGGCCC |  | -1.71 ± 0.46 |

| Sequence | self-splicing fitness (ln) (30 °C) | self-splicing fitness (ln) (37 °C) |
| --- | --- | --- |
| CACUAGCAAUAUUACGGGAA | -2.2 ± 0.18 | -2.29 ± 0.17 |
| CACUAGCAAUAUUACGGGUG | -4.03 ± 0.36 | -2.57 ± 0.21 |
| CACUAGCAAUAUUACGGUGA | -3.47 ± 0.21 | -2.22 ± 0.18 |
| CACUAGCAAUAUUACGGUGC | -2.24 ± 0.22 | -2.43 ± 0.35 |
| CACUAGCAAUAUUACGUCCU | -2.36 ± 0.13 | -1.24 ± 0.18 |
| CACUAGCAAUAUUACGUCUC | -4.18 ± 0.26 | -2.43 ± 0.2 |
| CACUAGCAAUAUUACGUGUC | -3.71 ± 0.14 | -2.93 ± 0.15 |
| CACUAGCAAUAUUACGUUUC | -4.29 ± 0.3 | -1.98 ± 0.29 |
| CAGAAGCAAUAUUACGAAGU | -3.9 ± 0.37 | -2.48 ± 0.26 |
| CAGAAGCAAUAUUACGACAU | -3.128 ± 0.02 | -1.87 ± 0.034 |
| CAGAAGCAAUAUUACGACCG | 0.169 ± 0.12 | 0.634 ± 0.15 |
| CAGAAGCAAUAUUACGACUG | -3.23 ± 0.21 | -2.48 ± 0.19 |
| CAGAAGCAAUAUUACGAUGC | -4.82 ± 0.42 | -2.92 ± 0.35 |
| CAGAAGCAAUAUUACGAUUC |  | -1.98 ± 0.18 |
| CAGAAGCAAUAUUACGCCAG | -0.586 ± 0.072 | -0.605 ± 0.12 |
| CAGAAGCAAUAUUACGGCAA | -2.48 ± 0.22 | -1.25 ± 0.19 |
| CAGAAGCAAUAUUACGGUAU | -3.21 ± 0.19 | -2.47 ± 0.22 |
| CAGAAGCAAUAUUACGGUUG | -1.2 ± 0.069 | -1.08 ± 0.098 |
| CAGAAGCAAUAUUACGUAAG | -0.12 ± 0.057 | 0.772 ± 0.074 |
| CAGAAGCAAUAUUACGUAUA | -3.84 ± 0.21 | -1.84 ± 0.14 |
| CAGAAGCAAUAUUACGUCAA | -2.46 ± 0.27 | -2.24 ± 0.26 |
| CAGAAGCAAUAUUACGUGAA | -3.07 ± 0.13 | -1.16 ± 0.12 |
| CAGAAGCAAUAUUACGUGGG | -3.34 ± 0.17 | -2.6 ± 0.16 |
| CAGAAGCAAUAUUACGUGUG | -3.01 ± 0.074 | -2.19 ± 0.082 |
| CAGAAGCAAUAUUACGUUCA | -2.03 ± 0.14 | -0.728 ± 0.1 |

| Sequence | self-splicing fitness (ln) (30 °C) | self-splicing fitness (ln) (37 °C) |
| --- | --- | --- |
| CAGAAGCAAUAUUACGUUGA | -2.84 ± 0.2 | -1.53 ± 0.15 |
| CAGAAGCAAUAUUACGUUGU | -3.38 ± 0.13 | -2.81 ± 0.15 |
| CAGCAGCAAUAUUACGAAGA | -2.72 ± 0.31 | -2.6 ± 0.38 |
| CAGCAGCAAUAUUACGAAUC | -2.38 ± 0.27 | -2.33 ± 0.4 |
| CAGCAGCAAUAUUACGACUU | -0.431 ± 0.068 | 0.69 ± 0.083 |
| CAGCAGCAAUAUUACGAGCG | -0.131 ± 0.053 | -0.0622 ± 0.066 |
| CAGCAGCAAUAUUACGAGUA | -3.05 ± 0.19 | -1.77 ± 0.18 |
| CAGCAGCAAUAUUACGAGUU | -3.95 ± 0.2 | -2.15 ± 0.13 |
| CAGCAGCAAUAUUACGCGAG | -2.74 ± 0.15 | -1.7 ± 0.15 |
| CAGCAGCAAUAUUACGCGCG | -1.63 ± 0.099 | -1.3 ± 0.14 |
| CAGCAGCAAUAUUACGCGUA | -1.87 ± 0.083 | -1.05 ± 0.075 |
| CAGCAGCAAUAUUACGCUGU | -2.84 ± 0.22 | -2.36 ± 0.24 |
| CAGCAGCAAUAUUACGGAUC | -3.6 ± 0.36 | -1.37 ± 0.26 |
| CAGCAGCAAUAUUACGGGAC | -3.71 ± 0.22 | -2.46 ± 0.27 |
| CAGCAGCAAUAUUACGGUGG | -1.17 ± 0.067 | -0.196 ± 0.088 |
| CAGCAGCAAUAUUACGUCAG | -0.347 ± 0.05 | -0.265 ± 0.06 |
| CAGCAGCAAUAUUACGUGUC | -3.31 ± 0.15 | -2.79 ± 0.18 |
| CAGCAGCAAUAUUACGUGUG | -2.51 ± 0.077 | -1.32 ± 0.088 |
| CAGCAGCAAUAUUACGUUCU | -2.35 ± 0.072 | -1.4 ± 0.081 |
| CAGCAGCAAUAUUACGUUGC | -2.61 ± 0.27 | -2.11 ± 0.2 |
| CAGGAGCAAUAUUACGAUAA | -3.33 ± 0.2 | -1.88 ± 0.16 |
| CAGGAGCAAUAUUACGAUAC | -2.81 ± 0.4 |  |
| CAGGAGCAAUAUUACGAUCA | -1.84 ± 0.16 | -2.74 ± 0.28 |
| CAGGAGCAAUAUUACGCAGG | -2.36 ± 0.078 | -1.37 ± 0.076 |
| CAGGAGCAAUAUUACGCCGC | -2.74 ± 0.25 | -1.58 ± 0.46 |

| Sequence | self-splicing fitness (ln) (30 °C) | self-splicing fitness (ln) (37 °C) |
| --- | --- | --- |
| CAGGAGCAAUAUUACGCGUA | -2.85 ± 0.16 | -2.03 ± 0.18 |
| CAGGAGCAAUAUUACGCGUG | -3.2 ± 0.16 | -2.42 ± 0.17 |
| CAGGAGCAAUAUUACGUAGA | -3.42 ± 0.28 | -1.56 ± 0.21 |
| CAGGAGCAAUAUUACGUAUU | -2.97 ± 0.21 | -2.2 ± 0.18 |
| CAGGAGCAAUAUUACGUCGC | -3.25 ± 0.34 | -1.6 ± 0.29 |
| CAGGAGCAAUAUUACGUGUA | -4.13 ± 0.27 | -2.83 ± 0.25 |
| CAGGAGCAAUAUUACGUUGC |  | -2.26 ± 0.28 |
| CAGUAGCAAUAUUACGAAAG | -0.623 ± 0.099 | -0.726 ± 0.14 |
| CAGUAGCAAUAUUACGAACG | -0.0483 ± 0.12 | -0.375 ± 0.14 |
| CAGUAGCAAUAUUACGAAUA | -4.27 ± 0.43 | -1.71 ± 0.2 |
| CAGUAGCAAUAUUACGAGAA |  | -3.36 ± 0.46 |
| CAGUAGCAAUAUUACGAGUU | -3.52 ± 0.18 | -2.06 ± 0.15 |
| CAGUAGCAAUAUUACGAUUA | -2.16 ± 0.13 | -1.73 ± 0.11 |
| CAGUAGCAAUAUUACGCAAC |  | -1.53 ± 0.36 |
| CAGUAGCAAUAUUACGCAAG | -1.07 ± 0.12 | -0.553 ± 0.17 |
| CAGUAGCAAUAUUACGCACA | -1.88 ± 0.14 | -0.579 ± 0.18 |
| CAGUAGCAAUAUUACGCAGA | -2.68 ± 0.37 | -2.43 ± 0.3 |
| CAGUAGCAAUAUUACGCCAG | -0.7 ± 0.1 | -0.109 ± 0.15 |
| CAGUAGCAAUAUUACGCCGU | -2.93 ± 0.36 | -0.37 ± 0.19 |
| CAGUAGCAAUAUUACGCGCA | -1.08 ± 0.074 | -0.617 ± 0.085 |
| CAGUAGCAAUAUUACGCGGA | -2.93 ± 0.24 | -1.64 ± 0.15 |
| CAGUAGCAAUAUUACGCGGG | -3.1 ± 0.16 | -1.91 ± 0.17 |
